One molecule from article PMC5699081 (Proceedings of the National Academy of Sciences of the …, 2017) can be followed below.

The target in this assay is T1, GST-MPSR1 (Misfolded Protein Sensing RING E3 ligase 1) (Arabidopsis thaliana, UniProt Q9LQX2 1-204).
T1 sequence (looked up): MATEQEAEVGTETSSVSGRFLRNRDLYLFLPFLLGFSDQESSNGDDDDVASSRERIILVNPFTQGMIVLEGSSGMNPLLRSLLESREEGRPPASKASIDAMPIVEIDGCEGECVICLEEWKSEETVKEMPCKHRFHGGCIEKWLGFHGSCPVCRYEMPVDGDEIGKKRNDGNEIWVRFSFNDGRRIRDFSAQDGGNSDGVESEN
Kind of assay: pull-down.

Changes are numbered by the printed parent chain.

B1: His-MPSR1-DN (enzyme, Arabidopsis thaliana, UniProt Q9LQX2 1-204, looked up)
chain: T1 sequence (looked up) with C153S
In the case of B1, the binding result is “binds”.
